Tested on: engineered chimeric receptor SEQ ID NO: 33 and its mutants (human α7-nAChR ligand binding domain / human GlyRα1 ion pore domain) in Lenti-X 293T cells
Test: YFP fluorescence quenching anion reporter plate reader assay (percent quench, EC50)
Assay type: cell-based
Conditions: for YFP fluorescence quenching using CNL001 (percent quench): receptor named in row; for YFP fluorescence quenching using Varenicline, 3 nM var: ligand Varenicline 3 nM; for YFP fluorescence quenching using Varenicline, 30 nM var: ligand Varenicline 30 nM; for YFP fluorescence quenching using Varenicline, 300 nM var: ligand Varenicline 300 nM; for YFP fluorescence quenching using Varenicline, 500 nM var: ligand Varenicline 500 nM; for YFP fluorescence quenching using Varenicline, 1 uM var: ligand Varenicline 1 uM
Description: To screen these mutant LGICs for those having novel response profiles to ligands, an anion reporter assay was developed to assess the function of the LGICs in a high throughput format. In this assay, cells expressing a YFP reporter whose fluorescence is quenched in the presence of anion are transfected with DNA encoding the channel of interest. Upon exposure to ligand, channels that are activated will flux anion, resulting in a dose-dependent quench of the YFP that can be detected on a plate reader. The greater the quench signal (i.e., the more positive the value), the higher the ligand activity on the receptor is.
Lenti-X 293T cells (LX293T, Clontech) were maintained in DMEM containing 10% FBS and 1% penicillin/streptomycin (Invitrogen). […] Two days before assay, cells were split at a density of 20,000 cells/well in a 96-well tissue culture plate coated with poly-d lysine (Thermo Scientific). The next day, the cells were transiently transfected with 0.1 μg of DNA per well using standard Fugene protocol (Promega). On the day of assay, cells were washed 2 times in 1X extracellular solution (1X ECS: 140 mM NaCl, 5 mM KCl, 1 mM MgCl2, 2 mM CaCl2, 10 mM HEPES, 10 mM glucose, pH 7.2, mOsms 300). After the last wash, 100 μL of 1X ECS was added to the wells and the plate was incubated at 37° C. for 30 min. While incubating the plate, the drugs were diluted to a 2X concentration in 1X ECS-Nal (same components as 1X ECS except the 140 mM NaCl was replaced by 140 mM Nal). The plates were then read on a Flexstation3 (Molecular Devices). Each well, 8 wells at a time, of the plate is read for 2 min using a Flexstation3 (Molecular Devices) as follows: 1) a baseline YFP fluorescence is read for 17 sec, 2) 100 μL of ligand is added, and 3) the changes in YFP fluorescence are then measured every 1.3 sec for 1 minute and 43 seconds. The percent quench is calculated from the average fluorescence of the last 10 seconds of the read divided by the baseline average of the first 15 seconds prior to the ligand addition.
FIGS. 1A-1J provide heat maps of the percent quench of YFP fluorescence following stimulation by various doses of either acetylcholine or the non-native ligand as indicated in the Figures. CODA71 (SEQ ID NO: 33) was used as a control, and CODA75 (SEQ ID NO: 29, a non-responding chimeric engineered receptor) was used as the negative control. Quenching of the fluorescence signal, as indicated by blue shaded cells, indicate the level of engineered receptor activation by the non-native ligand at that concentration.

B1: CODA238: engineered receptor: R101W in SEQ ID NO: 33 (protein)
chain: MRCSPGGVWLALAASLLHVSLQGEFQRKLYKELVKNYNPLERPVANDSQPLTVYFSLSLLQIMDVDEKNQVLTTNIWLQMSWTDHYLQWNVSEYPGVKTVWFPDGQIWKPDILLYNSADERFDATFHTNVLVNSSGHCQYLPPGIFKSSCPMDLKNFPMDVQTCKLKFGSWSYGGWSLDLQMQEADISGYIPNGEWDLVGIPGKRSERFYECCKEPYPDVTFTVTMRRRMGYYLIQMYIPSLLIVILSWISFWINMDAAPARVGLGITTVLTMTTQSSGSRASLPKVSYVKAIDIWMAVCLLFVFSALLEYAAVNFVSRQHKELLRFRRKRRHHKSPMLNLFQEDEAGEGRFNFSAYGMGPACLQAKDGISVKGANNSNTTNPPPAPSKSPEEMRKLFIQRAKKIDKISRIGFPMAFLIFNMFYWIIYKIVRREDVHNQ
modifications: synthetic sequence of chimeric LGIC
- YFP fluorescence quenching using CNL001 (percent quench) (1 nM CNL001, first column so headed): 32.42%
- YFP fluorescence quenching using CNL001 (percent quench) (1 nM CNL001, second column so headed): 54.768%
- YFP fluorescence quenching using TC-5619/Bradanicline (percent quench) (3 nM brd (TC-5619/Bradanicline)): 74.7%
- YFP fluorescence quenching using CNL001 (percent quench) (10 nM CNL001, first column so headed): 75.149%
- YFP fluorescence quenching using CNL001 (percent quench) (10 nM CNL001, second column so headed): 75.339%
- YFP fluorescence quenching using TC-5619/Bradanicline (percent quench) (30 nM brd (TC-5619/Bradanicline)): 76.78%
- YFP fluorescence quenching using CNL001 (percent quench) (50 nM CNL001, first column so headed): 75.881%
- YFP fluorescence quenching using CNL001 (percent quench) (50 nM CNL001, second column so headed): 77.844%
- YFP fluorescence quenching using ABT-126 (percent quench) (50 nM abt (ABT-126)): −14.97%
- YFP fluorescence quenching using CNL001 (percent quench) (100 nM CNL001, first column so headed): 78%
- YFP fluorescence quenching using CNL001 (percent quench) (100 nM CNL001, second column so headed): 78.575%
- YFP fluorescence quenching (percent quench) (100 nM CNL002): 2.95%
- YFP fluorescence quenching using ABT-126 (percent quench) (100 nM abt (ABT-126)): −14.66%
- YFP fluorescence quenching using AZD-0328 (percent quench) (100 nM azd0328): 22.94%
- YFP fluorescence quenching using ABT-126 (percent quench) (300 nM abt (ABT-126)): −16.35%
- YFP fluorescence quenching using AZD-0328 (percent quench) (300 nM azd0328): 75.38%
- YFP fluorescence quenching using TC-5619/Bradanicline (percent quench) (300 nM brd (TC-5619/Bradanicline)): 77.01%
- YFP fluorescence quenching using CNL001 (percent quench) (1 uM CNL001, first column so headed): 81.126%
- YFP fluorescence quenching using CNL001 (percent quench) (1 uM CNL001, second column so headed): 79.482%
- YFP fluorescence quenching (percent quench) (1 uM CNL002): 67.93%
- YFP fluorescence quenching using ABT-126 (percent quench) (1 uM abt (ABT-126)): 50.02%
- YFP fluorescence quenching (percent quench) (10 uM ach (acetylcholine)): −16.58%
- YFP fluorescence quenching (percent quench) (30 uM CNL002): 73.02%
- YFP fluorescence quenching using AZD-0328 (percent quench) (30 uM azd0328): 81.8%
- YFP fluorescence quenching (percent quench) (100 uM ach (acetylcholine)): 75.18%
- YFP fluorescence quenching (percent quench) (1 mM ach (acetylcholine)): 78.99%
- YFP fluorescence quenching (percent quench) (3 mM ach (acetylcholine)): 75.74%
- YFP fluorescence quenching using Facinicline, 30 nM fac (ligand Facinicline 30 nM): −19.61
- YFP fluorescence quenching using Facinicline, 300 nM fac (ligand Facinicline 300 nM): 76.54
- YFP fluorescence quenching using Facinicline, 30 uM fac (ligand Facinicline 30 uM): 87.94
- YFP fluorescence quenching using TC-6987, 1 uM tc6987 (ligand TC-6987 1 uM): 72.47
- YFP fluorescence quenching using TC-6987, 10 uM tc6987 (ligand TC-6987 10 uM): 72.04
- YFP fluorescence quenching using TC-6987, 500 uM tc6987 (ligand TC-6987 500 uM): 76.56
- YFP fluorescence quenching using Varenicline, 3 nM var (first column): 17.896
- YFP fluorescence quenching using Varenicline, 3 nM var (second column): 12.564
- YFP fluorescence quenching using Varenicline, 30 nM var (first column): 16.263
- YFP fluorescence quenching using Varenicline, 30 nM var (second column): 22.117
- YFP fluorescence quenching using Varenicline, 300 nM var (first column): 77.492
- YFP fluorescence quenching using Varenicline, 300 nM var (second column): 79.056
- YFP fluorescence quenching using Varenicline, 500 nM var (first column): 80.186
- YFP fluorescence quenching using Varenicline, 500 nM var (second column): 80.065
- YFP fluorescence quenching using Varenicline, 1 uM var (first column): 81.263
- YFP fluorescence quenching using Varenicline, 1 uM var (second column): 80.702

Source: patent US20250152742A1, “COMPOSITIONS AND METHODS FOR NEUROLOGICAL DISEASES” (Trames Bio, Inc., priority 2022, published 2025)
